Numbering of substitutions follows the chain as printed.
T1: human IL-11 (human, UniProt P20809 22-199)
T1 sequence (looked up): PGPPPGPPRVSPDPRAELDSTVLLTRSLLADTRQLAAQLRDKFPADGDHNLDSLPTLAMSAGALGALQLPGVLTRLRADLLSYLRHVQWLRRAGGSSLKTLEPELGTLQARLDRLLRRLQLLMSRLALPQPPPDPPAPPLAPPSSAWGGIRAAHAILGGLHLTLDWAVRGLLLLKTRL

B1: YU100-E08 (scFv)
scFv: QVQLVQSGGGVVQPGRSLRLSCAASGFTFSSYAMHWVRQAPGKGLEWVAVISYDGSNKYYADSVKGRFTISRDNSKNTLYLQMNSLRAEDTAVYYCARIMGYDYGDYDVVDYWGQGTLVTVSSGSASAPKLEEGEFSEARVQSALTQPRSVSGSPGQSVTISCTGTSSDVGGYNYVSWYQQHPGKAPKLMIYDVSRRPSGVPDRFSGSKSGNTASLTISGLQAEDEADYYCCSYAGNYTWMFGGGTKLTVL
B2: YU100-H02 (scFv)
scFv: B1 scFv with V5Q, A33G, G153R, G172T, R196K, N237F, M241V
B3: YU112-C05 (scFv, not shown: a dimerising Fc or GST)
scFv: B1 scFv with Q1E, Q6E, S167I, S195T, R196K, D228G, C232S, N237S, M241V, K247E
B4: YU100-H04 (scFv)
scFv: B1 scFv with Q6E, R149A, V159I, V170I, G172V, R196K, N237S, M241V
B5: YU100-H09 (scFv, not shown: a dimerising Fc or GST)
scFv: B1 scFv with R149A, V159I, R196N, P202S, D203N, N237S, M241V
B6: YU100-F07 (scFv)
scFv: QVQLVESGGGVVQPGRSLRLSCAASGFTFSSYAMHWVRQAPGKGLEWVAVISYDGSNKYYADSVKGRFTISRDNSKNTLYLQMNSLRAEDTAVYYCARIMGYDYGDYDVVDYWGQGTLVTVSSGSASAPKLEEGEFSEARVQSALTQPRSVSVSPGQSVTISCTGTSSDVGGYEYVSWYQQHPGKAPKLMIYDVTKRPSGVPDRFSGSKSGNTASLTISGLQGEDAADYYCCSYAGSYTWVFGGGTTVTVL
B7: YU100-E09 (scFv)
scFv: B6 scFv with V153G, G172D, E174D, M190I, V201I, G223A, A226E, G244R, T247K, V248L
B8: YU112-H02 (scFv)
scFv: QVQLVESGGGVVQPGRSLRLSCAASGFTFSSYGMHWVRQAPGKGLEWVAVISYDGSNKYYADSVKGRFTISRDNSKNTLYLQMNSLRAEDTAVYYCAKLSGPNGVDYWGQGTLVTVSSGSASAPKLEEGEFSEARVQPVLTQPRSVSGSPGQSVTISCTGTSSDVGGYNYVSWYQQHPGKAPKVMIYDVSKRPSGVPDRFSGSKSGNTASLTISGLQAEDEADYYCCSYAGSYTWVFGGGTKLTVL
B9: YU100-F01 (scFv)
scFv: QVQLVQSGGGVVQPGRSLRLSCAASGFTFSSYGMHWVRQAPGKGLEWVAVISYDGSNKYYADSVKGRFTISRDNSKNTLYLQMNSLRAEDTAVYYCAKIGATDPLDYWGQGTLVTVSSGSASAPKLEEGEFSEARVQSALTQPASVSGSPGQSITISCTGTGSDVGAYDYVSWYQQHPGKAPKLMIYDVNNRPSGVSNRFSGSKSGNTASLTISGLQAEDEAEYYCSSFATSISWVFGGGTRLTVL
B10: YU112-F05 (scFv)
scFv: EVQLVQSGGGVVQPGRSLRLSCAASGFTFGSYGMHWVRQAPGKGLEWVAVISYDGSNKYYADSVKGRFTISRDNSKNTLYLQMNSLRAEDTAVYYCAKIGATDPLDYWGQGTLVTVSSGSASAPKLEEGEFSEARVQSALTQPRSVSGSPGQSVTISCTGTSSDVGGYNYVSWYQQHPGKAPKLIIYDVNNRPSGVSNRFSASKSGNTASLTISGLQAEDEADYYCNSYTSGSTWVFGGGTKLTVL
B11: YU112-H01 (scFv)
scFv: QVQLVESGGGVVQPGRSLRLSCAASGFTFGSYGMHWVRQAPGKGLEWVAVISYDGSNKYYADSVKGRFTISRDNSKNTLYLQMNSLRAEDTAVYYCAKGSYYFDYWGQGTLVTVSSGSASAPKLEEGEFSEARVETTLTQSPGTLSLSPGERATLSCRASQSVSSSYLAWYQQKPGQAPRLLIYGASSRATGIPDRFSGSGSGTDFTLTISSLQPDDFATYYCQQSYSTPTWTFGQGTKVEIK
B12: YU112-C03 (scFv, not shown: a dimerising Fc or GST)
scFv: QVQLVESGGGVVQPGRSLRLSCAASGFTFSSYGMHWVRQAPGKGLEWVAVISYDGSNKYYADSVKGRFTISRDNSKNTLYLQMNSLRAEDTAVYYCAKGGKSYYGFDYWGQGTLVTVSSGSASAPKLEEGEFSEARVDSVMTQSPSSLSASVGDRVTITCRASQAINSYLNWYQQKPGKAPKLLIYAASSLQSGVPSRFSGSGSGTDFTLTISGLQPEDFATYYCQQSYSTPSWTFGQGTKVEIK
B13: YU100-G10 (scFv)
scFv: QVQLVQSGGGVVQPGRSLRLSCAASGFTFSSYGMHWVRQAPGKGLEWVAVISYDGSNKYYADSVKGRFTISRDNSKNTLYLQMNSLRAEDTAVYYCAKIGATDPLDYWGQGTLVTVSSGSASAPKLEEGEFSEARVQSALTQPASVSGSLGQSITMSCTGTRRDVGGYDFVSWYQQYPGKAPKLIIYDVSNRPSGVSNRFTGSKSGNTASLTISGLQAEDEADYYCCSYAGTYTWVFGGGTKVTVL
B14: YU100-G07 (scFv)
scFv: QVQLVESGGGVVQPGRSLRLSCAASGFTFSSYGMHWVRQAPGKGLEWVAVISYDGSNKYYADSVKGRFTISRDNSKNTLYLQMNSLRAEDTAVYYCAKIGATDPLDYWGQGTLVTVSSGSASAPKLEEGEFSEARVQSALTQPASVSGSPGQSITISCTGTSSDVGAYDYVSWYQQHPGKAPKLMIYDVTNRPSGVSNRFSGSKSGNTASLTISGLQAEDEADYYCASYTRSSVWVFGGGTKLTVL

What follows are binders tested against T1, human IL-11 (assay: cell-based or functional assay).
Also: test concentration or dose not given here.

MMP2 production (ng/ml), TGFB1-stimulated human atrial fibroblasts, Experiment 1 (NEG 42.7, POS 70.2) [ng/mL] | MMP2 production (ng/ml), TGFB1-stimulated human atrial fibroblasts, Experiment 2 (NEG 36.2, POS 62.3) [ng/mL] | Binder
48.2 | 59.7 | B1
57.5 | 51.3 | B2
55.2 | 50.1 | B3
58.5 | 48.7 | B4
52.9 | 39.6 | B5
53.1 | 46.6 | B6
51.7 | 44.4 | B7
65.3 | 58 | B8
52.8 | 39.9 | B9
53.9 | 48.5 | B10
51.9 | 47.7 | B11
57.6 | 53.3 | B12
54 | 45.4 | B13
59 | 49.7 | B14

Reference: US20180186871A1 (SINGAPORE HEALTH SERVICES PTE, published 2018)
